Read-outs that look alike come from different tables or passages of the source.
Columns and labels:
[1] = target: IL-6R on human myeloma U266B1 cells (human) (UniProt P08887); assay: FACS binding to IL-6R on U266B1 cells
[2] = target: recombinant human IL-6R-extracellular domain (ECD) (human) (UniProt P08887); assay: direct ELISA on IL-6R
[3] = target: recombinant human IL-6R-extracellular domain (ECD) (human) (UniProt P08887); assay: receptor-ligand ELISA, blocking of IL-6 binding to IL-6R
[4] = target: IL-6R on human myeloma U266B1 cells (human) (UniProt P08887); assay: cell-based or functional assay
[5] = target: recombinant human IL-6R-extracellular domain (ECD) (human) (UniProt P08887); assay: SPR
[6] = target: IL-6R on human myeloma U266B1 cells (human) (UniProt P08887); assay: cell-based or functional assay; remark: listed apart in the source
[7] = target: IL-6R on human myeloma U266B1 cells (human) (UniProt P08887); assay: FACS on U266B1 cells
[8] = target: recombinant human IL-6R-extracellular domain (ECD) (human) (UniProt P08887); assay: receptor-ligand ELISA, blocking of IL-6 binding to IL-6R; remark: listed apart in the source
[9] = target: IL-6R on human myeloma U266B1 cells (human) (UniProt P08887); assay: FACS binding to IL-6R on U266B1 cells; remark: listed apart in the source

recombinant human IL-6R-extracellular domain (ECD) (human), sequence (P08887 20-365): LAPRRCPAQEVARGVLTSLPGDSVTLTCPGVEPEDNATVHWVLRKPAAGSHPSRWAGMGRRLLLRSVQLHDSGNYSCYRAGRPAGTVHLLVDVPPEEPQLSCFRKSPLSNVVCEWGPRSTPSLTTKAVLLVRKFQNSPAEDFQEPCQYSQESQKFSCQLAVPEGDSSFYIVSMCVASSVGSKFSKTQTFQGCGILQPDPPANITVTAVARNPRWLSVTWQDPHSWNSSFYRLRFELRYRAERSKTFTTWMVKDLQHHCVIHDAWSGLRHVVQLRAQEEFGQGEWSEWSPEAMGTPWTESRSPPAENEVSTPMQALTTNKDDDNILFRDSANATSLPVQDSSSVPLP
IL-6R on human myeloma U266B1 cells (human), sequence (P08887 20-468): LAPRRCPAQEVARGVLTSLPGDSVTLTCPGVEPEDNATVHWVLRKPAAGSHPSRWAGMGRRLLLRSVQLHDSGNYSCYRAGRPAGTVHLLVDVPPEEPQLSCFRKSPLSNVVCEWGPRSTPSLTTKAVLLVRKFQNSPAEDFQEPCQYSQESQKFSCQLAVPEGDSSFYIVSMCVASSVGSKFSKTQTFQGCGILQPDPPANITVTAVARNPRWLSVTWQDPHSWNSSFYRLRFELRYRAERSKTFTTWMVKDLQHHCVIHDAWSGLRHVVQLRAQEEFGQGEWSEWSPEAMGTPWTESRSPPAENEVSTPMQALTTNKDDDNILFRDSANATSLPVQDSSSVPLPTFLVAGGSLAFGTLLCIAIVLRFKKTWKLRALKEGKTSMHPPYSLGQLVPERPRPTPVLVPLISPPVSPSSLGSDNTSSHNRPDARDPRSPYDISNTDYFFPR

B1: Tocilizumab (antibody, part only; not given: constant regions, V domains shown, not shown: another chain or arm of the molecule)
VH: QVQLQESGPGLVRPSQTLSLTCTVSGYSITSDHAWSWVRQPPGRGLEWIGYISYSGITTYNPSLKSRVTMLRDTSKNQFSLRLSSVTAADTAVYYCARSLARTTAMDYWGQGSLVTVSS
VL: DIQMTQSPSSLSASVGDRVTITCRASQDISSYLNWYQQKPGKAPKLLIYYTSRLHSGVPSRFSGSGSGTDFTFTISSLQPEDIATYYCQQGNTLPYTFGQGTKVEIK
- EC50 [1]: 0.602 µg/mL
- EC50 [2]: 0.0458 µg/mL
- IC50 [3]: 1.1 µg/mL
- TF-1 proliferation IC50 [4]: 0.04 µg/mL
- Kd [5]: 3.85 nM
- koff [5]: 0.00097 s⁻¹
- kon [5]: 252000 M⁻¹ s⁻¹
- TF-1 proliferation IC50 [6]: 0.214 µg/mL
- EC50 (read off the curve) [7]: 0.6 µg/mL
- IC50 [8]: 0.56 µg/mL
- EC50 [9]: 0.206 µg/mL
